# Reference: the RNAGym collection of RNA variant scans (doi:10.1093/molbev/msab373)
# B1: Azoarcus group I ribozyme (parent)
# chain: GUGCCUUGCGCCGGGAAACCACGCAAGGGAUGGUGUCAAAUUCGGCGAAACCUAAGCGCCCGCCCGGGCGUAUGGCAACGCCGAGCCAAGCUUCGGCGCCUGCGCCGAUGAAGGUGUAGAGACUAGACGGCACCCACCUAAGGCAAACGCUAUGGUGAAGGCAUAGUCCAGGGAGUGGCGAAAGUCACACAAACCGG
# Variants of: B1
# Test: reverse-splicing fitness (ratio to wild type); higher = more active; in vitro selection; Mg2+ level not given
# Outline: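 An in vitro group I ribozyme library with randomized positions was T7-transcribed and gel-purified. In triplicate, 10 pmol RNA in EPPS pH 7.5 was reacted with 50 pmoles of a 30-nt RNA substrate for 1 h at 37 °C across several added MgCl2 levels (1–48 mM), then stopped with EDTA. Products were reverse transcribed from a substrate-complementary primer, PCR-amplified and sequenced (HiSeq 4000). Fitness is a variant's read proportion after selection over that before, normalised to wild type.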
row,Variant,reverse-splicing fitness
1,C82A A120U A145G C150U C169A U176A,0.00597
2,C82A A120U A145G C150U C169A U176G,0.00195
3,C82A A120U A145G C150U C169A U176C,0.00287
4,C82A A120U A145U C150G C169A,0.00305
5,C82A A120U A145U C150G C169G,0.00265
6,C82A A120U A145U C150G C169U,0.00321
7,C82A A120U C150A C169G U176G,0.00162
8,C82A A120U C150A C169G U176C,0.0032
9,C82A A120U C150A C169G U176A,0.00593
10,C82A A120U C169A,0.00277
11,C82A A120U C169G,0.00529
12,C82A A120U C169U,0.00613
13,C82A A120U C150G C169G U176G,0.00232
14,C82A A120U C150G C169G U176C,0.00251
15,C82A A120U C150G C169G U176A,0.00506
16,C82A A120U A145G C150G C169U U176C,0.00657
17,C82A A120U A145G C150G C169U U176G,0.00419
18,C82A A120U A145G C150G C169U U176A,0.00865
19,C82A A120U C150A U176C,0.00899
20,C82A A120U C150A U176A,0.00729
21,C82A A120U C150A U176G,0.00257

row,Variant,reverse-splicing fitness
1,C82A A120U A145G C150G C169U,0.00784
2,C82A A120U A145G C150G C169G,0.00686
3,C82A A120U C169U U176C,0.00453
4,C82A A120U C169U U176A,0.00359
5,C82A A120U A145U C150G,0.0166
6,C82A A120U A145U C150A,0.0126
7,C82A A120U A145U C150U,0.0889
8,C82A A120U A145G C150G C169A U176G,0.00515
9,C82A A120U A145G C150G C169A U176C,0.0082
10,C82A A120U A145G C150U C169G U176G,0.00214
11,C82A A120U A145G C150U C169G U176C,0.0042
12,C82A A120U A145G C150U C169G U176A,0.00591
13,C82A A120U C150A C169A U176C,0.00234
14,C82A A120U C150A C169A U176G,0.0024
15,C82A A120U C150A C169A U176A,0.00388
16,C82A A120U C150A C169U,0.00372
17,C82A A120U C150A C169A,0.0042
18,C82A A120U C150A C169G,0.00417
19,C82A A120U A145U C150A U176C,0.0092
20,C82A A120U A145U C150A U176A,0.00611
21,C82A A120U A145U C150A U176G,0.00276

row,Variant,reverse-splicing fitness
1,C82A A120U A145U U176C,0.0582
2,C82A A120U A145U U176G,0.01
3,C82A A120U A145U U176A,0.036
4,C82A A120U A145G C150U U176G,0.00635
5,C82A A120U A145G C150U U176C,0.0478
6,C82A A120U A145G C150U U176A,0.0246
7,C82A A120U A145U C150U C169A,0.00226
8,C82A A120U A145U C150U C169G,0.00375
9,C82A A120U A145U C150U C169U,0.00442
10,C82A A120U C150U C169U U176C,0.00368
11,C82A A120U C150U C169U U176G,0.00199
12,C82A A120U C150U C169U U176A,0.00458
13,C82A A120U C150G C169U U176G,0.00296
14,C82A A120U C150G C169U U176A,0.00325
15,C82A A120U C150G C169U U176C,0.00369
16,C82A A120U A145U C150U U176A,0.0232
17,C82A A120U A145U C150U U176C,0.0364
18,C82A A120U A145U C150U U176G,0.0066
19,C82A A120U A145G C150U C169G,0.00684
20,C82A A120U A145G C150U C169U,0.00646
21,C82A A120U A145G C150U C169A,0.00691

row,Variant,reverse-splicing fitness
1,C82A A120U A145G C169A U176A,0.00307
2,C82A A120U A145G C169A U176C,0.00257
3,C82A A120U A145G C169A U176G,0.00129
4,C82A A120U C150G U176C,0.00779
5,C82A A120U C150G U176A,0.00566
6,C82A A120U C150G U176G,0.00281
7,C82A A120U C169G U176G,0.00153
8,C82A A120U C169G U176A,0.00261
9,C82A A120U C169G U176C,0.00323
10,C82A A120U A145U C150A C169U,0.00267
11,C82A A120U A145U C150A C169A,0.00213
12,C82A A120U A145U C150A C169G,0.00217
13,C82A A120U A145G C169G U176A,0.00295
14,C82A A120U A145G C169G U176C,0.00373
15,C82A A120U A145G C169G U176G,0.00125
16,C82A A120U C150U U176A,0.0194
17,C82A A120U C150U U176G,0.00609
18,C82A A120U C150U U176C,0.0352
19,C82A A120U A145U C169U,0.0055
20,C82A A120U A145U C169A,0.00202
